In patent US20110177077A1:

Columns and labels:
[1] = molecular target: human PAX 5 protein (human) (UniProt Q02548); assay: IHC, Reed Sternberg cells, Hodkins lymphoma 1, antibody at 3 ug/mL
[2] = molecular target: human PAX 5 protein (human) (UniProt Q02548); assay: IHC, Reed Sternberg cells, Hodkins lymphoma 2, antibody at 3 ug/mL
[3] = molecular target: human PAX 5 protein (human) (UniProt Q02548); assay: IHC, Reed Sternberg cells, Hodkins lymphoma 3, antibody at 3 ug/mL
[4] = molecular target: human PAX 5 protein (human) (UniProt Q02548); assay: IHC, Reed Sternberg cells, Hodkins lymphoma 4, antibody at 3 ug/mL

UniProt Q02548, sequence (Q02548 whole entry): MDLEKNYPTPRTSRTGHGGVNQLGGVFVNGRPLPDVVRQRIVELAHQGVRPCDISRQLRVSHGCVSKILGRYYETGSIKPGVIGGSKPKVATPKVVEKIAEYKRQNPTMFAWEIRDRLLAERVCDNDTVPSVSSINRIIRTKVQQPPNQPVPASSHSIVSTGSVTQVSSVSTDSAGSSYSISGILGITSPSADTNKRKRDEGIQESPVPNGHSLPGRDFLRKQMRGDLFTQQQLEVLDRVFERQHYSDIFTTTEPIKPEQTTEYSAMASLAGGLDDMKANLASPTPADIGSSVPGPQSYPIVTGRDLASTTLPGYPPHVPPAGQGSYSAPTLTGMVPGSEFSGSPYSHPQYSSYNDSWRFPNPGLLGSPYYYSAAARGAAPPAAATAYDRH

Substance | IHC staining intensity score (score on a scale of 0 to 6) [1] | IHC staining intensity score (score on a scale of 0 to 6) [2] | IHC staining intensity score (score on a scale of 0 to 6) [3] | IHC staining intensity score (score on a scale of 0 to 6) [4]
monoclonal mouse B-Cell Specific Activator Protein (BSAP), clone DAK-Pax5 (antibody) | 6 | 0 | 2 | 6
monoclonal mouse PAX 5, clone 24 (BD Biosciences) (antibody) | 2 | 0 | 1 | 2
